Experimental data reported in article PMC8902820.
Values belong to the molecule of their own block, whether it stands above or below them.

What was measured:
[1] = target: FcγRIIA H131 (SPR assay) (UniProt P12318); assay: SPR; FcγRIIA, FcγRIIB, FcγRIIIA; KD determined by the analyte concentration at which half of the ligands are occupied at equilibrium
[2] = target: FcγRIIB (SPR assay) (UniProt P31994); assay: as above
[3] = target: FcγRI (SPR assay) (UniProt P12314); assay: SPR; FcγRI; KD calculated from the ratio of the kinetic constants (KD = koff/kon)
UniProt P12314, sequence (P12314 16-374): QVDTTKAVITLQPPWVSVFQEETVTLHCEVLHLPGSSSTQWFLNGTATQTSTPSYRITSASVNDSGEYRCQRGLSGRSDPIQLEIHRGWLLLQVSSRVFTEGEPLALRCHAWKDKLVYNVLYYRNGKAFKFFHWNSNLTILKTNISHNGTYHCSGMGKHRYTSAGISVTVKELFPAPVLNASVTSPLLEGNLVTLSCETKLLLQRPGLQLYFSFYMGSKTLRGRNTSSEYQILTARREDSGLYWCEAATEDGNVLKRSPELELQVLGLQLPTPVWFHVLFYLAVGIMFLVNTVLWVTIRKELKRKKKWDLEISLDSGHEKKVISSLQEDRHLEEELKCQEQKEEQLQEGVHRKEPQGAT

[4] = target: FcγRIIIA V158; assay: SPR; FcγRIIA, FcγRIIB, FcγRIIIA; KD determined by the analyte concentration at which half of the ligands are occupied at equilibrium
[5] = target: FcγRIIIA F158 (UniProt P08637); assay: as above
UniProt P08637, sequence (P08637 17-254): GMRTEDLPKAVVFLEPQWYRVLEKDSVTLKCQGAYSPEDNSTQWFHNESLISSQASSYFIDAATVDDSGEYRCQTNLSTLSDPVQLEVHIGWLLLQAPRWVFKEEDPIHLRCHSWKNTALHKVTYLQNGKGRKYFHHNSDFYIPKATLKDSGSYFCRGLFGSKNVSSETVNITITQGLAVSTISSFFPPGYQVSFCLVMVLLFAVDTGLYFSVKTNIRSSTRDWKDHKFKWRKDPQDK

[6] = target: FcγRIIA R131 (SPR assay); assay: as above

UniProt P31994, sequence (P31994 43-310): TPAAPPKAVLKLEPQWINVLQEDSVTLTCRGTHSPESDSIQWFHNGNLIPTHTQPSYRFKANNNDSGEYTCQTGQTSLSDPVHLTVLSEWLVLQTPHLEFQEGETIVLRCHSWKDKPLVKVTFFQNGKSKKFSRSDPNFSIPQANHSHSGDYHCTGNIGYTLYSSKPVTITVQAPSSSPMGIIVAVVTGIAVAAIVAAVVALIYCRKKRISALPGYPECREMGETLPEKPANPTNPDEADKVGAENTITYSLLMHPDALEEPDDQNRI
UniProt P12318, sequence (P12318 34-317): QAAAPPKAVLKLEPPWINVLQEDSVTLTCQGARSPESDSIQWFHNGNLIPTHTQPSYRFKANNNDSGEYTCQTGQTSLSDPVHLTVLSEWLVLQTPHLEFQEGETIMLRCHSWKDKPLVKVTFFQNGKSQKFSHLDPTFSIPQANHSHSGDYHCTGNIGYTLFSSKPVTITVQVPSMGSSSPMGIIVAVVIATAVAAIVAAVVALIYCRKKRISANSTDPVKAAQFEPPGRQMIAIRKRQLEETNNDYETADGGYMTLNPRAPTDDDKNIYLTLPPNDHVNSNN

Kd [1]: 965 nM
Kd [2]: 2840 nM
Molecule: Ociperlimab (BGB-A1217), humanized IgG1 anti-human TIGIT antibody with wild-type IgG1 Fc

Kd [3]: 0.0406 nM
Kd [4]: 555 nM
Kd [5]: 2180 nM
Kd [6]: 1020 nM
B1: Ociperlimab (BGB-A1217), humanized IgG1 anti-human TIGIT antibody with wild-type IgG1 Fc (antibody, V domains shown)
VH: EVQLVESGGGLVQPGGSLRLSCAASGFTFSDYYMYWVRQAPGKGLEWVAYITKGGGSTYYPDSVKGRFTISRDNAKNTLYLQMNSLRAEDTAVYYCARQTNYDFTMDYWGQGTLVTVSS
VL: EIVMTQSPATLSVSPGERATLSCKASQDVGTSVAWYQQKPGQAPRLLIYWASARHTGIPARFSGSGSGTEFTLTISSLQSEDFAVYYCQQYSSYPLTFGGGTKVEIK
